Assay results published in paper PMC9482650, “Quantitative fragmentomics allow affinity mapping of interactomes” (Nature Communications, 2022).

T1: SNTB1, Q13884
T1 sequence (Q13884 107-205, limits assumed, looked up): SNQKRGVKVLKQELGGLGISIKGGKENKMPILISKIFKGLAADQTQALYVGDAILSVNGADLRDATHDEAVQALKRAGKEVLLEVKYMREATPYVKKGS

T2: APBA2_2, Q99767
T2 sequence (Q99767 654-744, limits assumed, looked up): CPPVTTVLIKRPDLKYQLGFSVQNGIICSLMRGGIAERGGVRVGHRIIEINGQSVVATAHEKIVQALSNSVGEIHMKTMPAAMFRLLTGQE

T3: PDZD7_3, Q9H5P4
T3 sequence (Q9H5P4 857-944, limits assumed, looked up): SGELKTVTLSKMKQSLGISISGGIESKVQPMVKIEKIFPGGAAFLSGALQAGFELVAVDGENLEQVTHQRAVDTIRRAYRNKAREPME

T4: SNTA1, Q13424
T4 sequence (Q13424 82-180, limits assumed, looked up): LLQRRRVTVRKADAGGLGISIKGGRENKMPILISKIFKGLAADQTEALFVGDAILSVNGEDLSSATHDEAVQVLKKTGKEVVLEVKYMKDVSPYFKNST

T5: DLG3_1, Q92796
T5 sequence (Q92796 125-227, limits assumed, looked up): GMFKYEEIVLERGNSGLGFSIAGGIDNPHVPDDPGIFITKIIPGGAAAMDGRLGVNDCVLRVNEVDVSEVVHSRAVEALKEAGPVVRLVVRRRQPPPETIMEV

T6: SHANK1, Q9Y566
T6 sequence (Q9Y566 658-767, limits assumed, looked up): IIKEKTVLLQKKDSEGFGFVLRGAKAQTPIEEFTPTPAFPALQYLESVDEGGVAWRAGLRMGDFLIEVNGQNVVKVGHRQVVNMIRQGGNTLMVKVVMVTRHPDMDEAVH

T7: SYNJ2BP, P57105
T7 sequence (P57105 8-110, limits assumed, looked up): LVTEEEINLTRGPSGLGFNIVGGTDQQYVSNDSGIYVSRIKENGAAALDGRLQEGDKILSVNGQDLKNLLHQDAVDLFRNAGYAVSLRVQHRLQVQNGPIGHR

T8: GRIP1_5, Q9Y3R0
T8 sequence (Q9Y3R0 568-668, limits assumed, looked up): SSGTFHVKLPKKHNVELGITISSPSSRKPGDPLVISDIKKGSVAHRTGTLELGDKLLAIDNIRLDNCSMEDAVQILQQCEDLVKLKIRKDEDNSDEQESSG

T9: DVL3, Q92997
T9 sequence (Q92997 244-331, limits assumed, looked up): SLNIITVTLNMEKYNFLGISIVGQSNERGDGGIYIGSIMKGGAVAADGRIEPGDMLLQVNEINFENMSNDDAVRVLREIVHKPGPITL

T10: SIPA1L2, Q9P2F8
T10 sequence (Q9P2F8 945-1036, limits assumed, looked up): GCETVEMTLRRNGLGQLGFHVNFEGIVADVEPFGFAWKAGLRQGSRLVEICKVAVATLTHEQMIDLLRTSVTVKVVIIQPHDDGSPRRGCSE

T11: CARD11, Q9BXL7
T11 sequence (Q9BXL7 662-765, limits assumed, looked up): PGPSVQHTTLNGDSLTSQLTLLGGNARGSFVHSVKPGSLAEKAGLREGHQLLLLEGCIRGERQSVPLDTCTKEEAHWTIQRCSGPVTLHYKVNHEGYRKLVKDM

T12: TJP3_3, O95049
T12 sequence (O95049 375-456, limits assumed, looked up): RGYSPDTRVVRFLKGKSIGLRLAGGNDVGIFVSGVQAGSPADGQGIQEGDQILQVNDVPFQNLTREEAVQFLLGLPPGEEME

T13: APBA3_1, O96018
T13 sequence (O96018 389-490, limits assumed, looked up): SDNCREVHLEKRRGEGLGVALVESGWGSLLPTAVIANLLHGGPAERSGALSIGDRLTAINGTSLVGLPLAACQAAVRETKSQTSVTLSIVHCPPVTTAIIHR


Tests used:
Assay in all cases: holdup assay
Parameters in all cases: key: below the threshold = too weak to quantify, mostly under pKd 3.1 to 4
Details in all cases: plain residues with an end cap or a label only (N-terminal biotin on a linker: ado-ado)
PDLIM1, O00151 = biological target: PDLIM1, O00151
PDLIM1, O00151, sequence (O00151 1-87): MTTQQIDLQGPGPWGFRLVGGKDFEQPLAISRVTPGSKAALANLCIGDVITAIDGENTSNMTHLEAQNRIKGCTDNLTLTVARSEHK

Inadl_4, Q8NI35 = biological target: Inadl_4, Q8NI35
Inadl_4, Q8NI35, sequence (Q8NI35 547-651): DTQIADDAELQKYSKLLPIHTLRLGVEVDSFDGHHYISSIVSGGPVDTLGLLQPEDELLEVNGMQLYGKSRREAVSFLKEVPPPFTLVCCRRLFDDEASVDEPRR

SNTB1, Q13884 = biological target: T1, SNTB1, Q13884
MAGI2_6, Q86UL8 = biological target: MAGI2_6, Q86UL8
MAGI2_6, Q86UL8, sequence (Q86UL8 1141-1229): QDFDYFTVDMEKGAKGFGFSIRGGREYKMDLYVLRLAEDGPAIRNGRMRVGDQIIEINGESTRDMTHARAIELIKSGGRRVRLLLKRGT

APBA2_2, Q99767 = biological target: T2, APBA2_2, Q99767
PDZD7_3, Q9H5P4 = biological target: T3, PDZD7_3, Q9H5P4
SNTA1, Q13424 = biological target: T4, SNTA1, Q13424
DLG3_1, Q92796 = biological target: T5, DLG3_1, Q92796
GRID2IP_2, A4D2P6 = biological target: GRID2IP_2, A4D2P6
GRID2IP_2, A4D2P6, sequence (A4D2P6 272-370): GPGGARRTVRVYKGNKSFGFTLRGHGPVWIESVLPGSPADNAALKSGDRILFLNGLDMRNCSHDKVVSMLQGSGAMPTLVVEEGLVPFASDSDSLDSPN

SHANK1, Q9Y566 = biological target: T6, SHANK1, Q9Y566
SYNJ2BP, P57105 = biological target: T7, SYNJ2BP, P57105
GRIP1_5, Q9Y3R0 = biological target: T8, GRIP1_5, Q9Y3R0
HTRA1, Q92743 = biological target: HTRA1, Q92743
HTRA1, Q92743, sequence (Q92743 360-477): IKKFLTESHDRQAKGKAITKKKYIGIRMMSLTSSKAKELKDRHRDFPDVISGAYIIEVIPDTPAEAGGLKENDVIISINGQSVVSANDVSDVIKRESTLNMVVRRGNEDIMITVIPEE

DVL3, Q92997 = biological target: T9, DVL3, Q92997
SIPA1L2, Q9P2F8 = biological target: T10, SIPA1L2, Q9P2F8
CARD11, Q9BXL7 = biological target: T11, CARD11, Q9BXL7
TJP3_3, O95049 = biological target: T12, TJP3_3, O95049
SCRIB_2, Q14160 = biological target: SCRIB_2, Q14160
SCRIB_2, Q14160, sequence (Q14160 857-960): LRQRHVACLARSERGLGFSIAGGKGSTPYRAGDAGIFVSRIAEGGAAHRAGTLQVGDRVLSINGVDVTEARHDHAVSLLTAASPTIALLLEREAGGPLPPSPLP

DLG5_1, Q8TDM6 = biological target: DLG5_1, Q8TDM6
DLG5_1, Q8TDM6, sequence (Q8TDM6 617-713): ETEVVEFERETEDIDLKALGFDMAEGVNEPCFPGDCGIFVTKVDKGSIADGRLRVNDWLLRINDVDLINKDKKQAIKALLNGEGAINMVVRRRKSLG

APBA3_1, O96018 = biological target: T13, APBA3_1, O96018
GRIP2_4, Q9C0E4 = biological target: GRIP2_4, Q9C0E4
GRIP2_4, Q9C0E4, sequence (Q9C0E4 446-548): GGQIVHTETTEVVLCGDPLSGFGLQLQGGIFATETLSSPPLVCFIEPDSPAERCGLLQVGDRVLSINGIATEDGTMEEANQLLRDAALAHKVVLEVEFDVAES

DLG1_1, Q12959 = biological target: DLG1_1, Q12959
MAGI2_5, Q86UL8 = biological target: MAGI2_5, Q86UL8
MAGI2_5, Q86UL8, sequence (Q86UL8 915-1017): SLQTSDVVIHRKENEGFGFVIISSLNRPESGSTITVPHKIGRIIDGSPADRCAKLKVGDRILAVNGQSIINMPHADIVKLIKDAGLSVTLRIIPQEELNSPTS

MAST1, Q9Y2H9 = biological target: MAST1, Q9Y2H9
MAST1, Q9Y2H9, sequence (Q9Y2H9 962-1065): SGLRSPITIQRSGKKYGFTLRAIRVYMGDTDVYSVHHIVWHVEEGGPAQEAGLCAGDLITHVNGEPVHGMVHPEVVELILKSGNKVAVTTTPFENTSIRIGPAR

Inadl_6, Q8NI35 = biological target: Inadl_6, Q8NI35
Inadl_6, Q8NI35, sequence (Q8NI35 1058-1167): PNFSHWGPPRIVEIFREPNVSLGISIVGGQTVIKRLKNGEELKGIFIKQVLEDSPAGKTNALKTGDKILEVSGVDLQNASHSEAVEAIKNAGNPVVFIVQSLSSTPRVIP

Row | pKd (PDLIM1, O00151) | pKd (Inadl_4, Q8NI35) | pKd (SNTB1, Q13884) | pKd (MAGI2_6, Q86UL8) | pKd (APBA2_2, Q99767) | pKd (PDZD7_3, Q9H5P4) | pKd (SNTA1, Q13424) | pKd (DLG3_1, Q92796) | pKd (GRID2IP_2, A4D2P6) | pKd (SHANK1, Q9Y566) | pKd (SYNJ2BP, P57105) | pKd (GRIP1_5, Q9Y3R0) | pKd (HTRA1, Q92743) | pKd (DVL3, Q92997) | pKd (SIPA1L2, Q9P2F8) | pKd (CARD11, Q9BXL7) | pKd (TJP3_3, O95049) | pKd (SCRIB_2, Q14160) | pKd (DLG5_1, Q8TDM6) | pKd (APBA3_1, O96018) | Binder | other results
1 | below the threshold | below the threshold | below the threshold | below the threshold | below the threshold | below the threshold | below the threshold | below the threshold | below the threshold | below the threshold | below the threshold | below the threshold | 3.94 | below the threshold | below the threshold | below the threshold | 3.55 | below the threshold | below the threshold | below the threshold | PAPSSGKDYV [CLDN1, O95832] | pKd (GRIP2_4, Q9C0E4): below the threshold; pKd (DLG1_1, Q12959): below the threshold; pKd (MAGI2_5, Q86UL8): below the threshold; pKd (MAST1, Q9Y2H9): 3.51; pKd (Inadl_6, Q8NI35): below the threshold
2 | 5.1 | below the threshold | below the threshold | 4.11 | below the threshold | below the threshold | below the threshold | below the threshold | below the threshold | below the threshold | below the threshold | below the threshold | below the threshold | below the threshold | below the threshold | below the threshold | below the threshold | below the threshold | below the threshold | below the threshold | DTTVPESEDL [MYOZ2, Q9NPC6] | pKd (GRIP2_4, Q9C0E4): below the threshold; pKd (DLG1_1, Q12959): below the threshold; pKd (MAGI2_5, Q86UL8): below the threshold; pKd (MAST1, Q9Y2H9): 4.21; pKd (Inadl_6, Q8NI35): below the threshold
3 | 3.6 | 3.49 | 5.23 | 4.71 | below the threshold | 4.82 | 5.22 | 3.87 | 4.39 | 3.94 | 5.2 | below the threshold | 4.16 | 3.59 | 3.55 | 3.49 | 3.57 | 4.94 | 3.7 | below the threshold | EVEEFPETSV [TRPV3, Q8NET8] | pKd (GRIP2_4, Q9C0E4): 3.55; pKd (DLG1_1, Q12959): 4.25; pKd (MAGI2_5, Q86UL8): 3.82; pKd (MAST1, Q9Y2H9): 4.21; pKd (Inadl_6, Q8NI35): 4.18
4 | below the threshold | below the threshold | below the threshold | below the threshold | below the threshold | below the threshold | below the threshold | below the threshold | below the threshold | below the threshold | below the threshold | below the threshold | below the threshold | below the threshold | below the threshold | below the threshold | below the threshold | below the threshold | below the threshold | below the threshold | NHSSSPETTA [TRMT13, Q9NUP7] | pKd (GRIP2_4, Q9C0E4): below the threshold; pKd (DLG1_1, Q12959): below the threshold; pKd (MAGI2_5, Q86UL8): below the threshold; pKd (MAST1, Q9Y2H9): 3.55; pKd (Inadl_6, Q8NI35): below the threshold
5 | below the threshold | below the threshold | 4.37 | 4.71 | below the threshold | 5.09 | 4.23 | 3.87 | 4.17 | below the threshold | 4.75 | below the threshold | 5.05 | below the threshold | below the threshold | below the threshold | below the threshold | 4.28 | below the threshold | below the threshold | PDGQCTVTEV [RNF146, Q9NTX7] | pKd (GRIP2_4, Q9C0E4): below the threshold; pKd (DLG1_1, Q12959): 4.53; pKd (MAGI2_5, Q86UL8): 4.47; pKd (MAST1, Q9Y2H9): 4.8; pKd (Inadl_6, Q8NI35): 3.95
6 | below the threshold | below the threshold | 3.64 | 3.85 | below the threshold | 4.68 | below the threshold | 3.84 | 4.2 | below the threshold | 4.95 | below the threshold | 3.95 | below the threshold | below the threshold | below the threshold | below the threshold | below the threshold | below the threshold | below the threshold | SAKVRTVTSV [RASL11B, Q9BPW5] | pKd (GRIP2_4, Q9C0E4): below the threshold; pKd (DLG1_1, Q12959): 4.42; pKd (MAGI2_5, Q86UL8): below the threshold; pKd (MAST1, Q9Y2H9): 4.77; pKd (Inadl_6, Q8NI35): below the threshold
